Measurements: patent US20150064134A1

What was measured:
Assay in all cases: cell-based or functional assay
[1] = biological target: CaMKIIδ(h) (human) (UniProt Q13557)
[2] = biological target: CaMKIIγ(h) (human) (UniProt Q13555)
[3] = biological target: EphA4(h) (human) (UniProt P54764)
[4] = biological target: T1, EphA8(h) (human) (UniProt P29322)
T1 sequence (looked up): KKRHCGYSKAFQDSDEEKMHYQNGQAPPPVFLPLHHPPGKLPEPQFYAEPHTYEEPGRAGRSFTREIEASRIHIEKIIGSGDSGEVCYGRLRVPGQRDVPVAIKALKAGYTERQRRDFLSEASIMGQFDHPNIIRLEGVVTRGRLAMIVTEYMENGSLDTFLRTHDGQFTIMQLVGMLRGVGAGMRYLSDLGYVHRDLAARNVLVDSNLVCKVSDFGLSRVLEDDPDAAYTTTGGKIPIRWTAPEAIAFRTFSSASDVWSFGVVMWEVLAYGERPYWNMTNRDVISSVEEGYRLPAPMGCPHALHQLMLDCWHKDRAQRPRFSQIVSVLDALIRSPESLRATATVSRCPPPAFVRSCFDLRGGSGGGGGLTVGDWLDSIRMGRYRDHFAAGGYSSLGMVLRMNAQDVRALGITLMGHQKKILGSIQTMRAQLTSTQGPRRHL

[5] = biological target: CDK2/cyclinE(h) (human) (UniProt P24941)
[6] = biological target: Flt4(h) (human) (UniProt P35916)
[7] = biological target: T2, EphA5(h) (human) (UniProt P54756)
T2 sequence (looked up): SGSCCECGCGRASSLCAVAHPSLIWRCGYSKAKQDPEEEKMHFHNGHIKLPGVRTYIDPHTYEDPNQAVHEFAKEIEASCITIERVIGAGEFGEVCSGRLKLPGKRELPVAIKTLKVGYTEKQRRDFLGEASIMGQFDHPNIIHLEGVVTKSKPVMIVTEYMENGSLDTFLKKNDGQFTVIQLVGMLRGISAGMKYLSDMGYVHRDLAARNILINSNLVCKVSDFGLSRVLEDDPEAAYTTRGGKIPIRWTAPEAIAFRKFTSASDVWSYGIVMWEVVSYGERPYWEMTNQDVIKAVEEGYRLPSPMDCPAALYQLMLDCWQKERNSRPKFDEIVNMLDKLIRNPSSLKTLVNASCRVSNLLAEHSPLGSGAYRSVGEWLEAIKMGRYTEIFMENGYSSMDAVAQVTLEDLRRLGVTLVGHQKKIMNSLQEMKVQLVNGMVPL

[8] = biological target: T3, TAO2(h) (human) (UniProt Q9UL54)
T3 sequence (looked up): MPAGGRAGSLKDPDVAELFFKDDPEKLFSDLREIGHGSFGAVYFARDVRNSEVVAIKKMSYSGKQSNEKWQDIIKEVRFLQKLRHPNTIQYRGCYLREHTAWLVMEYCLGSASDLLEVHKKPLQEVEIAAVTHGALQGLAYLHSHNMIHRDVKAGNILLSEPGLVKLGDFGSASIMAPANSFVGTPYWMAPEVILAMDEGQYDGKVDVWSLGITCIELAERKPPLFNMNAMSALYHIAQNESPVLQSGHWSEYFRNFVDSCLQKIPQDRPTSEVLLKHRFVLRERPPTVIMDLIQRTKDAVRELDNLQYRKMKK

[9] = biological target: PKCε(h) (human) (UniProt Q02156)
[10] = biological target: AMPKα1(h) (human) (UniProt Q13131)
[11] = biological target: ZIPK(h) (human) (UniProt O43293)
[12] = biological target: Met(Y1248C)(h) (human) (UniProt P08581)
[13] = biological target: PKBγ(h) (human) (UniProt Q9Y243)
[14] = biological target: GRK6(h) (human) (UniProt P43250)
[15] = biological target: PKG1α(h) (human) (UniProt Q13976)
[16] = biological target: SIK(h) (human) (UniProt P57059)
[17] = biological target: HIPK2(h) (human) (UniProt Q9H2X6)
[18] = biological target: T4, PKG1β(h) (human) (UniProt Q13976)
T4 sequence (looked up): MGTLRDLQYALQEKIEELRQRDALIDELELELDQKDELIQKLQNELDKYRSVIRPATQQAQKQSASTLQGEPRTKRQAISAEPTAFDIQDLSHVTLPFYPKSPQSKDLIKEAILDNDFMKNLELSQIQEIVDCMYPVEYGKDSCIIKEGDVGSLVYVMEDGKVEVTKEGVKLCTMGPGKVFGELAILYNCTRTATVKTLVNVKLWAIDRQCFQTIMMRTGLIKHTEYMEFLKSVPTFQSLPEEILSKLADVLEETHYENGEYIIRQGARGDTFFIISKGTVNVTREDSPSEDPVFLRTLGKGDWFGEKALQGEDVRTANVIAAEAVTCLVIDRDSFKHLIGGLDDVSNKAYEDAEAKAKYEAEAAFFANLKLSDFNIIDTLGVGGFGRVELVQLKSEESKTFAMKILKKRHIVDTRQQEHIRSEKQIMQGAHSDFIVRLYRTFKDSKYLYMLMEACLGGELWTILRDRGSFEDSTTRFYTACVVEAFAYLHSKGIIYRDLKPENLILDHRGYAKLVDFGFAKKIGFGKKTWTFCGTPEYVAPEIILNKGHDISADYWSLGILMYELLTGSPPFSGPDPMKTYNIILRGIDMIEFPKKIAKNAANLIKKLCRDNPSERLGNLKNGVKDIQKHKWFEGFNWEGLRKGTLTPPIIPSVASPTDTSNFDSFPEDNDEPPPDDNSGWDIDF

[19] = biological target: MEK1(h) (human) (UniProt Q02750)

Flt4(h) (human), sequence (P35916 800-1363 limits assumed): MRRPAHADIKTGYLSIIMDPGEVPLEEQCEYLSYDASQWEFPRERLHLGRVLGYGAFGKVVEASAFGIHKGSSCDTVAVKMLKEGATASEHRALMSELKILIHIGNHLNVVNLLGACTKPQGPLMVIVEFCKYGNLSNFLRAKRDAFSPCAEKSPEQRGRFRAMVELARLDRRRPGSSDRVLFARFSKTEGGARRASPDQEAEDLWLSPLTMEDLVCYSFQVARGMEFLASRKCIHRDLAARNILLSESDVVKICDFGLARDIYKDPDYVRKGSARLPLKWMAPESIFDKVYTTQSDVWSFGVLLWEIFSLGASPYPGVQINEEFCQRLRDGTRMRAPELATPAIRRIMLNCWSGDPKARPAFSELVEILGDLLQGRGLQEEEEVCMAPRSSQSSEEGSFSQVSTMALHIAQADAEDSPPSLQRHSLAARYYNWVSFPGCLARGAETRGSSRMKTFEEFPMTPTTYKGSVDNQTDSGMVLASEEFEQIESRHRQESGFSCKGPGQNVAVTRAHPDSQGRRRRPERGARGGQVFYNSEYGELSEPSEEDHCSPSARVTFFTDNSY
CaMKIIγ(h) (human), sequence (Q13555 whole entry): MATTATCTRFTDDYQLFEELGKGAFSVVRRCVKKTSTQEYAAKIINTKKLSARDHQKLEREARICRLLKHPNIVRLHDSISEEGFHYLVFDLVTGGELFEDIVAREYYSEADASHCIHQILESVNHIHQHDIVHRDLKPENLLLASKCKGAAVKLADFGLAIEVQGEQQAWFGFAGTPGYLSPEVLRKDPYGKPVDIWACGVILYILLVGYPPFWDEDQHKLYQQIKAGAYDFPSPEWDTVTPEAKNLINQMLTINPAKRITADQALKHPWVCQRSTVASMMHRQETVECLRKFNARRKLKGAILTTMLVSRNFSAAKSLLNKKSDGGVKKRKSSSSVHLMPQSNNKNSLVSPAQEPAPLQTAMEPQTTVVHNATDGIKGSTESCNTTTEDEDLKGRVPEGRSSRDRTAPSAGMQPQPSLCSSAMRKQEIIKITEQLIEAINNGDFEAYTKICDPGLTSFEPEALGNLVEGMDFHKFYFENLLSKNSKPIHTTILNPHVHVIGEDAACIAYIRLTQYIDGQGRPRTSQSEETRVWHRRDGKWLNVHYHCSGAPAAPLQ
PKBγ(h) (human), sequence (Q9Y243 whole entry): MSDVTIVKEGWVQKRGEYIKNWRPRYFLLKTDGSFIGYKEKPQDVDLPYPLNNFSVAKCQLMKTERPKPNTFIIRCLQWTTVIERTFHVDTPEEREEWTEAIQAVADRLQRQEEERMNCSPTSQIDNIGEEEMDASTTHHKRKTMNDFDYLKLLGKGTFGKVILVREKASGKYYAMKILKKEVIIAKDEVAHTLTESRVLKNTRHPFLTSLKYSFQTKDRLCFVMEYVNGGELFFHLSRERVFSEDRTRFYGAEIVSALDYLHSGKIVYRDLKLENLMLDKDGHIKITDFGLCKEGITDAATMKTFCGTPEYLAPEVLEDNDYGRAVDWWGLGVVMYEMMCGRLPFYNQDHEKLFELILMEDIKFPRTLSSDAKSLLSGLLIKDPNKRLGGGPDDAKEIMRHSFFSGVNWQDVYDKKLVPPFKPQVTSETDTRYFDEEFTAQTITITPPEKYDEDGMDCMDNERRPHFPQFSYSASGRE
EphA4(h) (human), sequence (P54764 570-986 limits assumed): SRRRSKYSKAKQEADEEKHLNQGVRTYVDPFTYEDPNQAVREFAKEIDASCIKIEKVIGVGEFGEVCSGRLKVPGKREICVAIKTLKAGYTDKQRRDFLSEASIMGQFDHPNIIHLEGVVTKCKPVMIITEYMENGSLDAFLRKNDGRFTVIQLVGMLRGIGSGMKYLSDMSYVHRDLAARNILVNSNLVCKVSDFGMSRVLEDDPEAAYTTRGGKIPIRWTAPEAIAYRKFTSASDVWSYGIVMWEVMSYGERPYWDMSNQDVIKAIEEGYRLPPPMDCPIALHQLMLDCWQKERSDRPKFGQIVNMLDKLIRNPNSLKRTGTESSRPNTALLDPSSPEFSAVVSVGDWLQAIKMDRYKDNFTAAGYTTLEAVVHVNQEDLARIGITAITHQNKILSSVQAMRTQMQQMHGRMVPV

% activity at 100 µM [1] [%]	% activity at 100 µM [2] [%]	% activity at 100 µM [3] [%]	% activity at 100 µM [4] [%]	% activity at 100 µM [5] [%]	% activity at 100 µM [6] [%]	% activity at 100 µM [7] [%]	% activity at 100 µM [8] [%]	% activity at 100 µM [9] [%]	% activity at 100 µM [10] [%]	% activity at 100 µM [11] [%]	% activity at 100 µM [12] [%]	% activity at 100 µM [13] [%]	% activity at 100 µM [14] [%]	% activity at 100 µM [15] [%]	% activity at 100 µM [16] [%]	% activity at 100 µM [17] [%]	% activity at 100 µM [18] [%]	% activity at 100 µM [19] [%]	Substance
2	3	65	146	83	89	24	74	59	87	13	36	41	141	58	68	90	53	77	MMI-0400 (peptide)
1	3	48	337	19	73	42	15	23	35	1	73	20	174	25	40	38	24	21	MMI-0500 (peptide)
1	5	88	93	94	83	18	70	79	71	28	84	20	147	64	66	73	50	77	MMI-0300 (peptide)
